These results are taken from patent US20240076348A1.

This experiment concerns the target Colony-stimulating factor-1 receptor (CSF-1R), encoded by c-fms (UniProt P07333). In words: cell-based or functional assay.

“C34B pCAR (CSF1-28z plus IL34-41BB), expressed on human T-cells (from UniProt P09603 33-190; Q6ZMJ4 21-242)” displayed a tumour cell killing on repeated re-stimulation, MTT assay on T47D FMS and T47D monolayers (iterative cycles of re-stimulation) of less than 13.
